The results in this text go back to paper PMC3091956.

The test deals with T1, 6xHis-Stg (N-terminally histidine-tagged full-length mouse stargazin) (mouse), O88602.
T1 chain: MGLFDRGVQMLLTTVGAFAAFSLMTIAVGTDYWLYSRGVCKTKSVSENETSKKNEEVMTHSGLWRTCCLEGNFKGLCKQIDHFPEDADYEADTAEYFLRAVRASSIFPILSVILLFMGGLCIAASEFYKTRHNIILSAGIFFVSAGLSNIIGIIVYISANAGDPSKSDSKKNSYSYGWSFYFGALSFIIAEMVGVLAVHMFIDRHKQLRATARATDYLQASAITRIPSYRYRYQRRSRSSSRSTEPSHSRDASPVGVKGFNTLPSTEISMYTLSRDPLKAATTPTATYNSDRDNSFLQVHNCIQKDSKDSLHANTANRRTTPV
The experiment in a line: electron crystallography of 2D crystals. Conditions: remark: other sources report otherwise.

As usually defined, the stoichiometry N is the number of molecules, sites or subunits per partner or assembly.

B1: 6xHis-Stg (N-terminally histidine-tagged full-length mouse stargazin), O88602 1-323 (natural protein)
chain: T1 chain
For B1, the stoichiometry N is 2.
